Here are results for nine molecules from paper PMC6784197.

Assay [1] addresses T1, hCD138 (human Syndecan-1), extracellular domain (human) (UniProt P18827).
T1 sequence: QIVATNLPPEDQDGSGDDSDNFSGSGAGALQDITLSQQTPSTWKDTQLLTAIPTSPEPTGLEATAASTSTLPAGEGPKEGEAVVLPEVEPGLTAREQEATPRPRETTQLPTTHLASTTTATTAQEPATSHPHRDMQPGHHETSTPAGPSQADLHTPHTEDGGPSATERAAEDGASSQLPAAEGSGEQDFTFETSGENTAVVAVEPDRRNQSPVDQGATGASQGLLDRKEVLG
Put plainly: SPR; bivalent (avidity) set-up: CD138 amine-coupled to CM5 chip (240 RU), IgG as analyte 33-300 nM; Biacore T200, HBS-P+ pH 7.4, 25 °C; 1:1 Langmuir model.

Another assay addresses <CD138> Hb-Lg. Kind of assay: SPR; monovalent (affinity) set-up: antibody captured via anti-hFc on CM5 chip, hCD138 as analyte 66-600 nM; Biacore T200, HBS-P+ pH 7.4, 25 °C; 1:1 Langmuir model. A general note: In SPR one partner is held on a chip, and binding of the other changes the refractive index at the surface.
Assay [2] has as its target <CD138> Hw-Lw (parent IgG). The assay is described as above.
The target of the next assay is <CD138> Ha-Lg. The assay is described as above.
The next assay addresses <CD138> Ha-Lw. The assay is described as above.
In a further assay the target is <CD138> Ha-La. Described as above.
The target in the next assay is <CD138> Hw-La. The description is as above.
Another assay deals with <CD138> Hb-La. Described as above.
For another assay, the target named is <CD138> Hb-Lw. Described as above.
A further assay addresses <CD138> Hg-Lw. Kind of assay: SPR; monovalent (affinity): anti-CD138 IgG variants (30 nM) captured via anti-hFc on CM5; hCD138 as analyte, 66-600 nM; HBS-P+ pH 7.4, 25 °C; 1:1 Langmuir model; Biacore T200.

B1: <CD138> Hb-Lg (antibody, V domains shown)
VH: QVQLQQSGSELMMPGASVKISCKATGYTFTGYWIEWVKQRPGHGLEWIGEILPGTGRTIYNEKFKGKATFTADISSNTVQMQLSSLTSEDSAVYYCARRDYYGNFYYAMDYWGQGTSVTVSS
VL: DIQMTQSTSSLSASLGDRVTISCSASQGISNYLNWYQQKPDGTVELLIYYTSSLHSGVPSRFSGSGSGTDYSLTISNLEPEDIGTYYCQQYSKLPRTFGGGTKLEIK
Usually koff stands for the first-order rate constant of dissociation. For orientation: kon means a measure of how fast the partners come together. For B1, in assay [1], the Kd was 2.4 nM, the koff is 0.0005 s⁻¹ and the kon is 390000 M⁻¹ s⁻¹.

B2: <CD138> Ha-Lw (antibody, V domains shown)
VH: QVQLQQSGSELMMPGASVKISCKATGYTFSNYWIEWVKQRPGHGLEWIGEILPGTGSTIYNEKFKGKATFTADISSNTVQMQLSSLTSEDSAVYYCARRDYYGNFYYAMDYWGQGTSVTVSS
VL: DIQMTQSTSSLSASLGDRVTISCSASQGINNYLNWYQQKPDGTVELLIYYTSTLQSGVPSRFSGSGSGTDYSLTISNLEPEDIGTYYCQQYSKLPRTFGGGTKLEIK
In assay [1], B2 registered a Kd of 0.42 nM, a koff of 7.1e-05 s⁻¹ and a kon of 170000 M⁻¹ s⁻¹.

B3: <CD138> Ha-La (antibody, V domains shown)
VH: QVQLQQSGSELMMPGASVKISCKATGYTFSNYWIEWVKQRPGHGLEWIGEILPGTGSTIYNEKFKGKATFTADISSNTVQMQLSSLTSEDSAVYYCARRDYYGNFYYAMDYWGQGTSVTVSS
VL: DIQMTQSTSSLSASLGDRVTISCSASQGINNYLNWYQQKPDGTVELLIYYTSTLHSGVPSRFSGSGSGTDYSLTISNLEPEDIGTYYCQQYSKLPRTFGGGTKLEIK
B3: in assay [1], the Kd was 0.4 nM, the koff worked out at 6.4e-05 s⁻¹ and the kon stood at 160000 M⁻¹ s⁻¹.

B4: <CD138> Hg-Lw (antibody, V domains shown)
VH: QVQLQQSGSELMMPGASVKISCKATGYTFTGYWIEWVKQRPGHGLEWIGEILPGSGSTNYNEKFKGKATFTADISSNTVQMQLSSLTSEDSAVYYCARRDYYGNFYYAMDYWGQGTSVTVSS
VL: DIQMTQSTSSLSASLGDRVTISCSASQGINNYLNWYQQKPDGTVELLIYYTSTLQSGVPSRFSGSGSGTDYSLTISNLEPEDIGTYYCQQYSKLPRTFGGGTKLEIK
In [1], B4 showed a Kd of 230 nM, a dissociation rate constant (koff) of 0.051 s⁻¹ and a kon of 210000 M⁻¹ s⁻¹.

B5: <CD138> Ha-Lg (antibody, V domains shown)
VH: QVQLQQSGSELMMPGASVKISCKATGYTFSNYWIEWVKQRPGHGLEWIGEILPGTGSTIYNEKFKGKATFTADISSNTVQMQLSSLTSEDSAVYYCARRDYYGNFYYAMDYWGQGTSVTVSS
VL: DIQMTQSTSSLSASLGDRVTISCSASQGISNYLNWYQQKPDGTVELLIYYTSSLHSGVPSRFSGSGSGTDYSLTISNLEPEDIGTYYCQQYSKLPRTFGGGTKLEIK
In [1], B5 came in with a Kd of 0.83 nM, a koff of 0.00029 s⁻¹ and a kon of 160000 M⁻¹ s⁻¹.

B6: <CD138> Hb-Lw (antibody, V domains shown)
VH: QVQLQQSGSELMMPGASVKISCKATGYTFTGYWIEWVKQRPGHGLEWIGEILPGTGRTIYNEKFKGKATFTADISSNTVQMQLSSLTSEDSAVYYCARRDYYGNFYYAMDYWGQGTSVTVSS
VL: DIQMTQSTSSLSASLGDRVTISCSASQGINNYLNWYQQKPDGTVELLIYYTSTLQSGVPSRFSGSGSGTDYSLTISNLEPEDIGTYYCQQYSKLPRTFGGGTKLEIK
Take B6: in assay [1], the Kd amounted to 0.28 nM, the koff turned out to be 0.00011 s⁻¹ and the kon worked out at 350000 M⁻¹ s⁻¹.

B7: <CD138> Hb-La (antibody, V domains shown)
VH: QVQLQQSGSELMMPGASVKISCKATGYTFTGYWIEWVKQRPGHGLEWIGEILPGTGRTIYNEKFKGKATFTADISSNTVQMQLSSLTSEDSAVYYCARRDYYGNFYYAMDYWGQGTSVTVSS
VL: DIQMTQSTSSLSASLGDRVTISCSASQGINNYLNWYQQKPDGTVELLIYYTSTLHSGVPSRFSGSGSGTDYSLTISNLEPEDIGTYYCQQYSKLPRTFGGGTKLEIK
As for B7, in assay [1], the Kd amounted to 0.31 nM, the koff worked out at 0.00012 s⁻¹ and the kon stood at 400000 M⁻¹ s⁻¹.

B8: hCD138 (human Syndecan-1), extracellular domain (domain or fragment)
chain: QIVATNLPPEDQDGSGDDSDNFSGSGAGALQDITLSQQTPSTWKDTQLLTAIPTSPEPTGLEATAASTSTLPAGEGPKEGEAVVLPEVEPGLTAREQEATPRPRETTQLPTTHLASTTTATTAQEPATSHPHRDMQPGHHETSTPAGPSQADLHTPHTEDGGPSATERAAEDGASSQLPAAEGSGEQDFTFETSGENTAVVAVEPDRRNQSPVDQGATGASQGLLDRKEVLG
As for B8, the Kd with <CD138> Hb-Lg was 610 nM; in [2], 80 nM; with <CD138> Ha-Lg, 380 nM; with <CD138> Ha-Lw, 190 nM; with <CD138> Ha-La it was 240 nM; in the assay with <CD138> Hw-La, 71 nM. Also, the Kd in the assay with <CD138> Hb-La is 140 nM; with <CD138> Hb-Lw it was 150 nM. Moreover, the koff with <CD138> Hb-Lg was 0.079 s⁻¹; in [2], 0.0062 s⁻¹; in the assay with <CD138> Ha-Lg, 0.045 s⁻¹; in the assay with <CD138> Ha-Lw it was 0.015 s⁻¹; in the assay with <CD138> Ha-La it was 0.013 s⁻¹; in the assay with <CD138> Hw-La, 0.0061 s⁻¹. Also, the koff turned out to be 0.025 s⁻¹ in the assay with <CD138> Hb-La and 0.027 s⁻¹ with <CD138> Hb-Lw. Moreover, the kon with <CD138> Hb-Lg was determined as 130000 M⁻¹ s⁻¹; in [2] it was 77000 M⁻¹ s⁻¹; in the assay with <CD138> Ha-Lg, 120000 M⁻¹ s⁻¹; with <CD138> Ha-Lw, 76000 M⁻¹ s⁻¹; with <CD138> Ha-La, 55000 M⁻¹ s⁻¹; in the assay with <CD138> Hw-La, 87000 M⁻¹ s⁻¹. In addition, the kon with <CD138> Hb-La was determined as 170000 M⁻¹ s⁻¹; with <CD138> Hb-Lw, 180000 M⁻¹ s⁻¹.

B9: hCD138 (human Syndecan-1, R&D Systems 2780-TS) (domain or fragment)
chain: QIVATNLPPEDQDGSGDDSDNFSGSGAGALQDITLSQQTPSTWKDTQLLTAIPTSPEPTGLEATAASTSTLPAGEGPKEGEAVVLPEVEPGLTAREQEATPRPRETTQLPTTHLASTTTATTAQEPATSHPHRDMQPGHHETSTPAGPSQADLHTPHTEDGGPSATERAAEDGASSQLPAAEGSGEQDFTFETSGENTAVVAVEPDRRNQSPVDQGATGASQGLLDRKEVLG
Consider B9, for which the fold reduction of affinity against the parent Hw-Lw in the assay with <CD138> Hg-Lw was over 100 fold.
